Laboratory results reported in patent publication WO2022210830A1 (dated 2022).
Substitutions are numbered along the chain they refer to.

B1: 1028-61L (antibody, V domains shown)
VH: EVQLVESGGGLVQPGGSLRLSCAASGIDVSSNYMSWVRQAPGKGLEWVSVIYSGGSTYYADAVRGRFTISRHNSKNTLYLQMNSLRAEDAAVYYCARDAQRYGMDVWGQGTTVTVSS
VL: SYVLTQPPSVSVAPGKTARITCGGNNIGSNTVHWYQQKPGQAPVLVIYYDSDRPSGIPERFSGSNSGNTATLTISRVEAGDEADYYCQLWDSSSDHVVFGGGTKLTVLG
B2: 1028-50K (antibody, V domains shown)
VH: EVQLVESGGGLVKPGGSLRLSCAASGFTFSSYIMNWVRQAPGKGLEWVSSISSSSYIYYADSVKGRFTISRDNAKNSLYLQMNSLRAEDTAVYYCARIVGATSYYYYGMDVWGQGTTVTVSS
VL: not shown
B3: 1028-65K (antibody, V domains shown)
VH: QVQLVQSGAEVKKPGASVKVSCKASGYTFSSYYMHWVRQAPGQGLEWMGIINPSGGSTSYAQKFQGRVTMTRDTSTSTVYMELSSLRSEDTAVYFCAREGRAAAETDNNWFDPWGQGTLVTVSS
VL: not shown
B4: 1028-30K (antibody, V domains shown)
VH: QVQLVQSGAEVKKPGSSVKVSCKASGGTFNTYAISWVRQAPGQGLEWMGGIIPIFGTANYAQKFQGRVTITADESTSTAYMELSSLRSEDTAVYYCARGEPGYCSGGNCYSSDYWGQGTLVTVSS
VL: not shown
B5: 1028-25K (antibody, V domains shown)
VH: QVQLVESGGGVVQPGRSLRLSCAASEFTFSGYAMHWVRQAPGKGLEWVAVISYDGINKYYADSVKGRFTISRDNSKNTLYLQMSSLRAEDTAVYYCARDPDYGDEGAFDYWGQGTLVTVSS
VL: not shown
B6: 1028-68L (antibody, V domains shown)
VH: QVQLVESGGGVVQPGRSLRLSCAASGFTFSSYAMHWVRQAPGKGLEWVAVISYDGSNKYYADSVKGRFTISRDNSKNTLYLQMNSLRAEDTAVYYCARADGSGWNYWGQGTLVTVSS
VL: SYELTQPPSVSVSPGQTARITCSGDPLPKQYAYWYQQKPGQAPVLVIYKDSERPSGIPERFSGSSSGTTVTLTISGVQAEDEADYYCQSADSSGTYGWEFGGGTKLTVLG
B7: 1028-106K (antibody, V domains shown)
VH: QLQLQESGPGLVKPSETLSLTCTVSGGSISSSYHYWGWIRQPPGKGLEWIGTIYYSGSTYYNPSLKSRVTISVDTSKNQFSLKLSSVTAADTAVYYCARRGYSYDSSGDGVDYWGQGTLVTVSS
VL: DIQMTQSPSSLSASVGDRVTITCRASQGIRNDLGWYQQKPGKAPKRLIYAASSLQSGVPSRFSGSGSGTEFTLTISSLQPEDFATYYCLQHNSYPLTFGGGTKVEIKR
B8: 1028-164L (antibody, V domains shown)
VH: QVTLRESGPALVKPTQTLTLTCTFSGFSLSTSGMCVSWIRQPPGKALEWLALIDWDDDKYYSTSLKTRLTISKDTSKNQVVLTMTNMDPVDTATYYCARIPVEMATIGDYYYYGMDVWGQGTTVTVSS
VL: not shown
B9: 1028-84K (antibody, V domains shown)
VH: QVQLVESGGGVVQPGRSLRLSCAASGFTFSNYAMHWVFQAPGMGLEWVAVISYDGINKYYADSVKGRFTISRDNSKNTLYLQMNSLRAEDTAVYYCASHRDDYVDSADAFDIWGQGTMVTVSS
VL: not shown
B10: 1028-55K (antibody, V domains shown)
VH: EVQLVESGGGLVQPGGSLRLSCAASGFIVSSNYMSWVRQAPGKGLEWVSLIYSGGSTYYVDSVKGRFTISRDNTKNTLYLQMNSLRAEDTAVYYCARDLDVRGALDIWGQGTMVIVSS
VL: not shown
B11: 1028-87L (antibody, V domains shown)
VH: not shown
VL: QAGLTQPPSVSKGLRQTATLTCTGNSNNVGNQGAAWLQQHQGHPPKLLSYRNNNRPSGISERLSASRSGNTASLTITGLQPEDEADYYCSAWDSSLSAQVFGGGTKLTVLG
B12: 1028-62L (antibody, V domains shown)
VH: QVQLQESGPGLVKPSGTLSLTCAVSGGSISSSNWWSWVRQPPGKGLEWIGEIYHSGSTNYNPSLKSRVTISVDKSNNQFSLKLSSVTAADTAVYYCARGWNYDYWGQGTLVTVSS
VL: QSALTQPASVSGSPGQSITISCTGTSSDVGSYNLVSWYQQHPGKAPKLMIYEGSKRPSGVSNRFSGSKSGNTASLTISGLQAEDEADYYCCSYAGSSTWVFGGGTKLTVLG
B13: 1028-137K (antibody, V domains shown)
VH: QVHLVESGGGVVQPGRSLRLSCAASGFTFNSYAMHWVRQAPGKGLEWVAVISYDGNNKYYADSVKGRFTISRDNSKNTLYLQMNSLRAEDTAVYYCARDDDSGSYLYYFDYWGQGTLVTVSS
VL: not shown
B14: 1028-29K (antibody, V domains shown)
VH: QVQLVQSGAEVKKPGASVKVSCKASGYTFTSYYMHWVRQAPGQGLEWMGIINPSGGSTSYAQKFQGRVTMTRDTSTSTVYMELSSLRSEDTAVYYCARDGTPDIVVVPAAPLDYWGQGTLVTVSS
VL: EIVLTQSPATLSLSPGERATLSCRASQSVSSYLAWYQQKPGQAPRLLIYDVSNRATGIPARFSGSGSGTDFTLTISSLEPEDFAVYYCQQRSNWPPVLTFGGGTKVEIKR
B15: 0210-28K (antibody, V domains shown)
VH: QMQLVQSGPEVKKPGTSVKVSCKASGFTFSISAVQWVRQARGQRLEWIGWIVVGSGNTNYAQKFQERVTITRDMSTSTAYMELSSLRFEDTAVYYCAAPYCGGDCSDGFDIWGQGTMVTVSS
VL: not shown
B16: 1028-37K (antibody, V domains shown)
VH: QVQLQQSGPGLVKPSQTLSLTCDISGDSVSSNSVAWNWIRQSPSRGLEWLGRTYYRSKWYNDYAVSVKSRITINPDTSKNQFSLQLNSVTPEDTAVYYCASGGYQLLYDDAFDIWGQGTMVTVSS
VL: not shown
B17: 1028-05K (antibody, V domains shown)
VH: QVTLKESGPVLVKPTETLTLTCTVSGFSLSNARMGVSWIRQPPGKALEWLAHIFSNDEKSYSTSLKRRLTISKDTPKSQVVLTMTNMDPVDTATYYCARTLGFWSGEYYYYYMDVWGKGTTVTVSS
VL: EIVMTQSPATLSVSPGERATLSCRASQSVSSSYLAWYQQKPGQAPRLLIYGASTRATGIPARFSGSGSGTEFTLTISSLQSEDFAVYYCQHYNNWPPLFTFGPGTKVDIKR
B18: 1028-121K (antibody, V domains shown)
VH: B17 VH with N31D, S62N, R67S, P76S, T100A, E107Y
VL: not shown
B19: 0210-38L (antibody, V domains shown)
VH: EVQLVESGGGLVQPGGSLRLSCAASGFTFNSYWMSWVRQAPGKGLEWVADIKQDGSEKYYVDSVKGRFTISRDNAKNSLYLQMNSLRAEDTAVYYCARQLYYYGPIDYWGQGTLVTVSS
VL: NFMLTQPHSVSESPGKTVTISCTRSSGSIASNYVQWYQQRPGSSPTTVIYEDNQRPSGVPDRFSGSIDSSSNSASLTISGLKTEDEADYYCQSYDSNNRVFGGGTKLTVLG
B20: 0210-30L (antibody, V domains shown)
VH: QVQLVQSGAEVKKPGSSVKVSCKASGGTFSSYAINWVRQAPGQGLEWMGRIIPILGRANYAQKFQGRVTITADKSTSTAYMELSSLRSEDTAVYYCARNPEEFSSSYVYYYYMDVWGKGTTVTVSS
VL: QSALTQPRSVSGSPGQSVTISCTGTSSDVGGYSYVSWYQQHPDKAPKLMIYDVSKRPSGVPDRFSGSKSGNTASLTISGLQAEDEADYYCCSYAGSYTSWVFGGGTKLTVLG

These binders were tested against T1, SARS-CoV Receptor binding domain (RBD) protein (SARS-CoV, UniProt P59594 306-527) (assay: ELISA, immobilised SARS-CoV RBD).

| Binder | binding result |
| --- | --- |
| B1 | no binding (tested: 200 ng/ml) |
| B2 | no binding (tested: 200 ng/ml) |
| B3 | no binding (tested: 200 ng/ml) |
| B4 | no binding (tested: 200 ng/ml) |
| B5 | no binding (tested: 200 ng/ml) |
| B6 | no binding (tested: 200 ng/ml) |
| B7 | no binding (tested: 200 ng/ml) |
| B8 | no binding (tested: 200 ng/ml) |
| B9 | no binding (tested: 200 ng/ml) |
| B10 | no binding (tested: 200 ng/ml) |
| B11 | no binding (tested: 200 ng/ml) |
| B12 | no binding (tested: 200 ng/ml) |
| B13 | no binding (tested: 200 ng/ml) |
| B14 | no binding (tested: 200 ng/ml) |

What follows are binders tested against SARS-CoV-2 spike protein, Wuhan type (WT), on pseudotype virus SARS-CoV-2 St19pv (SARS-CoV-2, UniProt P0DTC2 14-1273) (assay: cell-based or functional assay).

| Binder | IC50, inhibition of pseudotype virus infection, 1st experiment | IC50, inhibition of pseudotype virus infection, 2nd experiment |
| --- | --- | --- |
| B15 | 0.0084 µg/mL | 0.0303 µg/mL |

The binders below were run against T2, SARS-CoV-2 spike protein (SARS-CoV-2, UniProt P0DTC2 14-1273) (assay: not given).

| Binder | IC50 |
| --- | --- |
| B1 | ~0.25 µg/mL |
| B16 | ~0.7 µg/mL |
| B17 | ≥ 10 µg/mL |
| B18 | ~7.5 µg/mL |
| B10 | ~0.3 µg/mL |

The binders below were run against T1, SARS-CoV Receptor binding domain (RBD) … (assay: ELISA, immobilised domain protein, 200 ng/ml antibody).

| Binder | binding result |
| --- | --- |
| B16 | binds |
| B17 | binds |
| B18 | binds |

Each binder was assayed against T3, SARS-CoV-2 N-terminal domain (NTD) protein (SARS-CoV-2, UniProt P0DTC2 14-305) in the same assay as above.

| Binder | binding result |
| --- | --- |
| B7 | binds |
| B8 | binds |
| B12 | binds |
| B13 | binds |
| B14 | binds |

Each binder was assayed against T3, SARS-CoV-2 N-terminal domain (NTD) … (assay: ELISA, immobilised NTD).

| Binder | binding result |
| --- | --- |
| B1 | no binding (tested: 200 ng/ml) |
| B2 | no binding (tested: 200 ng/ml) |
| B3 | no binding (tested: 200 ng/ml) |
| B4 | no binding (tested: 200 ng/ml) |
| B5 | no binding (tested: 200 ng/ml) |
| B6 | no binding (tested: 200 ng/ml) |
| B16 | no binding (tested: 200 ng/ml) |
| B9 | no binding (tested: 200 ng/ml) |
| B17 | no binding (tested: 200 ng/ml) |
| B18 | no binding (tested: 200 ng/ml) |
| B10 | no binding (tested: 200 ng/ml) |
| B11 | no binding (tested: 200 ng/ml) |

The binders below were run against T2, SARS-CoV-2 spike protein (assay: competition ELISA: antibody + biotin-ACE2 on immobilised spike).

| Binder | IC50 |
| --- | --- |
| B15 | ~0.15 µg/mL |
| B19 | ~1.5 µg/mL |
| B20 | ~0.2 µg/mL |
